Laboratory results as given in US20030113787A1 (Takeda / Millennium, published 2003).

T1: FLAG-tagged CARD-10 (human, UniProt Q9BWT7 1-1032)
T1 construct: Expressed in 293T cells; also called FLAG-CARD-10
T1 sequence: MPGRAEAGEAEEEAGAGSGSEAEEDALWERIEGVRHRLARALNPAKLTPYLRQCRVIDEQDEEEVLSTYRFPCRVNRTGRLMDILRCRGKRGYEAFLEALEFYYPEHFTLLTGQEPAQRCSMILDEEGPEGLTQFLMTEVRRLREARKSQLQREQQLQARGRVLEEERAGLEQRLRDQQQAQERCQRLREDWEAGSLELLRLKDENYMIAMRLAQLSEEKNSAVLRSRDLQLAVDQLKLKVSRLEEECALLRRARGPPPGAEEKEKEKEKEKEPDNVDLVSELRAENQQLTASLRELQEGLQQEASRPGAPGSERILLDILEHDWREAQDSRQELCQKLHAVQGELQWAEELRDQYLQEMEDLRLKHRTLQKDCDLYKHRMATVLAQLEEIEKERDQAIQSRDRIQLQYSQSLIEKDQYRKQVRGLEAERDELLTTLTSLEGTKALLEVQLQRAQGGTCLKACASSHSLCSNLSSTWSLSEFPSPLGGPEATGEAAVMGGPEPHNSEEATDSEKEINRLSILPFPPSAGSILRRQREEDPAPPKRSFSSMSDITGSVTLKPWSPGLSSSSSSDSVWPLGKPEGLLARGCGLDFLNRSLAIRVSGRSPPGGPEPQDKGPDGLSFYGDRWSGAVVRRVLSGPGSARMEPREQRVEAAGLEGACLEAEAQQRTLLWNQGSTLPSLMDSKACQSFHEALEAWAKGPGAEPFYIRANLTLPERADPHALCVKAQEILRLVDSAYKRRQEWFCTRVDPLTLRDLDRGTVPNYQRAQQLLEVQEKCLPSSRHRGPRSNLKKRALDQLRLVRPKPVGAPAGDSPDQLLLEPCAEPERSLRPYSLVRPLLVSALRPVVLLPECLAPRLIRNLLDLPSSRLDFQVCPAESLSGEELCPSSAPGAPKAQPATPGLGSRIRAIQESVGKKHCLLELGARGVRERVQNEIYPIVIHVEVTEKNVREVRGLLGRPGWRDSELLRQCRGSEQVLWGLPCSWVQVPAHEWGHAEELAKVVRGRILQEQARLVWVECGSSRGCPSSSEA

T2: FLAG-CARD10/ΔCARD (human, UniProt Q9BWT7 131-1032)
T2 construct: also called CARD-10 truncation mutant lacking its CARD domain
T2 sequence: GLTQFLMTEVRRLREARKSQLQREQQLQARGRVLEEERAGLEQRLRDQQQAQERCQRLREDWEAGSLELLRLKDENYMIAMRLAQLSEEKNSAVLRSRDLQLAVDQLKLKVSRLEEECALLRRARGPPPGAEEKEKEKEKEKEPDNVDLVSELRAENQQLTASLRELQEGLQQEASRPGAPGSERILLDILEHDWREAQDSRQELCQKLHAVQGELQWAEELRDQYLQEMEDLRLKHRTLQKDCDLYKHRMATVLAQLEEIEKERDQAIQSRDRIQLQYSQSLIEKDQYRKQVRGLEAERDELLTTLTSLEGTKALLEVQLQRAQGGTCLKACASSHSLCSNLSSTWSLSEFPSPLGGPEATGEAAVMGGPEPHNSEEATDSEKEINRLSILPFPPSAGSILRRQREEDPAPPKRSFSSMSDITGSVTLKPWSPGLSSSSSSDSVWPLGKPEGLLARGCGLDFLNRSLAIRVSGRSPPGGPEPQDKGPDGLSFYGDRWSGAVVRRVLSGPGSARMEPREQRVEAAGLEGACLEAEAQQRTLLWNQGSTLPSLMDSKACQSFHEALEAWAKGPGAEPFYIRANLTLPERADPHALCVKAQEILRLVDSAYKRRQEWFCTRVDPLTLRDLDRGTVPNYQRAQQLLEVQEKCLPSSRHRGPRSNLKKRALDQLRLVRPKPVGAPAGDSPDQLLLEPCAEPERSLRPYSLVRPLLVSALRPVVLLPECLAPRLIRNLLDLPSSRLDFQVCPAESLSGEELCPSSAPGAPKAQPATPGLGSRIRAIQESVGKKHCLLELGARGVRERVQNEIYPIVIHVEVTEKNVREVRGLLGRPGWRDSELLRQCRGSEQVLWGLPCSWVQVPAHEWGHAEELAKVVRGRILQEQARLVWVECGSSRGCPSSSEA

B1: variant Bcl-10 with a point mutation (L41R) (other, UniProt O95999 1-233, looked up)
chain: MEPTAPSLTEEDLTEVKKDALENLRVYLCEKIIAERHFDHRRAKKILSREDTEEISCRTSSRKRAGKLLDYLQENPKGLDTLVESIRREKTQNFLIQKITDEVLKLRNIKLEHLKGLKCSSCEPFPDGATNNLSRSNSDESNFSEKLRASTVMYHPEGESSTTPFFSTNSSLNLPVLEVGRTENTIFSSTTLPRPGDPGAPPLPPDLQLEEEGTCANSSEMFLPLRSRTVSRQ
notes: also called Bcl-10 L41R mutant
B2: endogenous Bcl-10 (other, human, UniProt O95999 1-233, looked up)
chain: MEPTAPSLTEEDLTEVKKDALENLRVYLCEKIIAERHFDHLRAKKILSREDTEEISCRTSSRKRAGKLLDYLQENPKGLDTLVESIRREKTQNFLIQKITDEVLKLRNIKLEHLKGLKCSSCEPFPDGATNNLSRSNSDESNFSEKLRASTVMYHPEGESSTTPFFSTNSSLNLPVLEVGRTENTIFSSTTLPRPGDPGAPPLPPDLQLEEEGTCANSSEMFLPLRSRTVSRQ
notes: Endogenous protein in cell extracts

Columns and labels:
FLAG-tagged CARD-10 = target: T1, FLAG-tagged CARD-10; assay: co-immunoprecipitation from transfected 293T cells
FLAG-CARD10/ΔCARD [1] = target: T2, FLAG-CARD10/ΔCARD; assay: co-immunoprecipitation from transfected 293T cells
FLAG-CARD10/ΔCARD [2] = target: T2, FLAG-CARD10/ΔCARD; assay: co-immunoprecipitation with anti-Bcl-10 antibodies, anti-FLAG blot

Binder | binding result (FLAG-tagged CARD-10) | binding result (FLAG-CARD10/ΔCARD [1]) | binding result (FLAG-CARD10/ΔCARD [2])
B1 | no binding | no binding | –
B2 | – | – | no binding
